From patent publication EP4782541A1 (Nanjing Probio Biotech Co., Ltd., dated 2026)

What was measured:
[1] = biological target: T1, human ROR1 protein (human, UniProt Q01973 30-403, limits assumed); assay: SPR (Biacore 8K); human ROR1 amine-coupled at 0.50 ug/mL as ligand, antibody as analyte
T1 construct: Recombinant antigen of the SPR assay; also called ROR1 (SPR ligand)

[2] = biological target: T1, human ROR1 protein; assay: SPR (Biacore 8K); human ROR1 amine-coupled at 12.50 ug/mL as ligand, antibody as analyte
[3] = biological target: T1, human ROR1 protein; assay: SPR (Biacore 8K); human ROR1 amine-coupled at 0.05 ug/mL as ligand, antibody as analyte
[4] = biological target: T1, human ROR1 protein; assay: SPR (Biacore 8K); human ROR1 amine-coupled at 0.10 ug/mL as ligand, antibody as analyte
[5] = biological target: T1, human ROR1 protein; assay: SPR (Biacore 8K); human ROR1 amine-coupled at 2.50 ug/mL as ligand, antibody as analyte
[6] = biological target: T1, human ROR1 protein; assay: SPR (Biacore 8K); human ROR1 amine-coupled at 62.50 ug/mL as ligand, antibody as analyte
[7] = biological target: human ROR1 (on CHO-K1/ROR1 cells and ROR1 tumour cell lines) (human) (UniProt Q01973); assay: cell-based or functional assay
Chain of human ROR1 (on CHO-K1/ROR1 cells and ROR1 tumour cell lines) (human) (Q01973 30-937): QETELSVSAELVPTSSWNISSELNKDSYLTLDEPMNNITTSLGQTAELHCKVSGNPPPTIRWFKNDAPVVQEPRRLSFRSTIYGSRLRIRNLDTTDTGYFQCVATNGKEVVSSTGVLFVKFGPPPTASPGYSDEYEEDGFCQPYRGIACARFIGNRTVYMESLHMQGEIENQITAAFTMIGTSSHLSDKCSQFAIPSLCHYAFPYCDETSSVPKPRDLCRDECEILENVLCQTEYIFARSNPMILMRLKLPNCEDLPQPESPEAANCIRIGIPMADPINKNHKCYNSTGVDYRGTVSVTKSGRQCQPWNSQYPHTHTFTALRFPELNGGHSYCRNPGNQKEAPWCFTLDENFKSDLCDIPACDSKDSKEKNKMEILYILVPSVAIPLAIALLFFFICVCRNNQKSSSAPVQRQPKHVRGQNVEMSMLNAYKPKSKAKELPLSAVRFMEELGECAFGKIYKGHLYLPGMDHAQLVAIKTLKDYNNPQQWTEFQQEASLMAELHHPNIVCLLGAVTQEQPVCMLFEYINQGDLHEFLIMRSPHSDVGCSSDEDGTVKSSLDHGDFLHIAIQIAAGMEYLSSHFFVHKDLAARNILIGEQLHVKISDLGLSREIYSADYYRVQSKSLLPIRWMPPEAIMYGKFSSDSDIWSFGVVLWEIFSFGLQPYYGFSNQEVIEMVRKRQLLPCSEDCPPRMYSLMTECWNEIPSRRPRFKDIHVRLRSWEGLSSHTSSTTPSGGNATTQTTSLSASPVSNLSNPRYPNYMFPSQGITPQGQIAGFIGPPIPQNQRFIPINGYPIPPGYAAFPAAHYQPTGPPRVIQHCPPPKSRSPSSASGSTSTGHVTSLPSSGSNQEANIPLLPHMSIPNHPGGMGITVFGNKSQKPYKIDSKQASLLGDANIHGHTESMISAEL

[8] = biological target: T2, human CD3 (on Jurkat cells) (human, UniProt P07766 23-207; P09693 23-182; P04234 22-171); assay: flow cytometry on Jurkat cells expressing human CD3
T2 construct: whole, on cells
T2 sequence (P07766 23-207, chain 1 of 3): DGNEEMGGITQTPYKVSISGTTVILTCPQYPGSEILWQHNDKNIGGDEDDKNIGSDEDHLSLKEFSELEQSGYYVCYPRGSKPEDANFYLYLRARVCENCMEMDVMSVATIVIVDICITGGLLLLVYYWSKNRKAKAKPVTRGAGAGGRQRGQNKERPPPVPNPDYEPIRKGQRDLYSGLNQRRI
T2 sequence (P09693 23-182, chain 2 of 3): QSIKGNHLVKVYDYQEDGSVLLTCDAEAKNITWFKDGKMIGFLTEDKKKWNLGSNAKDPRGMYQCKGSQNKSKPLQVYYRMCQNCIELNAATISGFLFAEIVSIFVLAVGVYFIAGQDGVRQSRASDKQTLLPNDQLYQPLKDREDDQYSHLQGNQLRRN
T2 sequence (P04234 22-171, chain 3 of 3): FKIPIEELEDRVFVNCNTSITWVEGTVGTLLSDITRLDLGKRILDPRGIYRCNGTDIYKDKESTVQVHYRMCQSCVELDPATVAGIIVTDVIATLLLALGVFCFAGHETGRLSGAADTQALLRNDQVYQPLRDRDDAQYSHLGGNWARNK

T1 sequence (Q01973 30-403 limits assumed): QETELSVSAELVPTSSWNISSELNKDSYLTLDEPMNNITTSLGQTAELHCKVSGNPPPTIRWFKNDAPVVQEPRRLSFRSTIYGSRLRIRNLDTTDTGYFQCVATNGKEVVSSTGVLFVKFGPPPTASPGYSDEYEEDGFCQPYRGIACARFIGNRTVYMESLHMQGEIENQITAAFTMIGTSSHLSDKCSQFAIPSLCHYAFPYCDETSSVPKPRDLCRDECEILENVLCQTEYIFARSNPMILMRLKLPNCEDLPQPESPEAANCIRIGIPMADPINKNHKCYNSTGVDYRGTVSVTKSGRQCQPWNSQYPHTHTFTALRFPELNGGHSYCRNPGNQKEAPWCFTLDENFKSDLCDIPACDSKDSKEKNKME

Molecule: NVG-111 (bispecific antibody)
- Kd [1]: 1.92 nM
- koff [1]: 0.00122 s⁻¹
- kon [1]: 632000 M⁻¹ s⁻¹
- Kd [2]: 1.49 nM
- koff [2]: 0.00109 s⁻¹
- kon [2]: 733000 M⁻¹ s⁻¹
- Kd [3]: 2.59 nM
- koff [3]: 0.00138 s⁻¹
- kon [3]: 532000 M⁻¹ s⁻¹
- Kd [4]: 1.82 nM
- koff [4]: 0.00113 s⁻¹
- kon [4]: 622000 M⁻¹ s⁻¹
- Kd [5]: 1.64 nM
- koff [5]: 0.00118 s⁻¹
- kon [5]: 723000 M⁻¹ s⁻¹
- Kd [6]: 1.71 nM
- koff [6]: 0.00101 s⁻¹
- kon [6]: 593000 M⁻¹ s⁻¹
- EC50 of T cell activation based on reporter gene (luciferase), target cells A375 [7]: 0.0329 nM
- EC50 of T cell activation based on reporter gene (luciferase), target cells Jeko-1 [7]: 0.0358 nM
- EC50 of T cell activation based on reporter gene (luciferase), target cells MDA-MB-231 [7]: 0.01 nM

B1: BsAb-6 (bispecific antibody, human IgG1, lambda)
chain: EVQLVESGGGLVQPGGSLRLSCAASYFISRFYAVGWYRQAPGKQRELVARISSGGWTYYADSVKGRFTISIDNSKNTLYLQMNSLRAEDTAVYYCNARNLWGQGTLVTVSSGGGGSGGGGSGGGGSEVQLVESGGGLVQPGGSLRLSCAASYFISRFYAVGWYRQAPGKQRELVARISSGGWTYYADSVKGRFTISIDNSKNTLYLQMNSLRAEDTAVYYCNARNLWGQGTLVTVSSDKTHTCPPCPAPESTRGPSVFLFPPKPKDTLMISRTPEVTCVVVDVSHEDPEVKFNWYVDGVEVHNAKTKPREEQYNSTYRVVSVLTVLHQDWLNGKEYKCKVSNKALPAPIEKTISKAKGQPREPQVCTLPPSRDELTKNQVSLSCAVKGFYPSDIAVEWESNGQPENNYKTTPPVLDSDGSFFLVSKLTVDKSRWQQGNVFSCSVMHEALHNHYTQKSLSLSPGK
heavy: EVQLVESGGGLVQPGRSLRLSCAASGFTFNTYAMNWVRQAPGKGLEWVARIRSKYNNYATYYADSVKDRFTISRDDSKSIAYLQMNSLKTEDTAVYYCVRHGNFGNSYVSWFAYWGQGTLVTVSSASTKGPSVFPLAPSSKSTSGGTAALGCLVKDYFPEPVTVSWNSGALTSGVHTFPAVLQSSGLYSLSSVVTVPSSSLGTQTYICNVNHKPSNTKVDKKVEPKSCDKTHTCPPCPAPESTRGPSVFLFPPKPKDTLMISRTPEVTCVVVDVSHEDPEVKFNWYVDGVEVHNAKTKPREEQYNSTYRVVSVLTVLHQDWLNGKEYKCKVSNKALPAPIEKTISKAKGQPREPQVYTLPPCRDELTKNQVSLWCLVKGFYPSDIAVEWESNGQPENNYKTTPPVLDSDGSFFLYSKLTVDKSRWQQGNVFSCSVMHEALHNHYTQKSLSLSPGK
light: QTVVTQEPSLTVSPGGTVTLTCRSSTGAVTTSNYANWVQQKPGQAPRGLIGGTNKRAPGVPARFSGSLLGGKAALTLSGVQPEDEAEYFCALWYSNLWVFGGGTKLTVLGQPKAAPSVTLFPPSSEELQANKATLVCLISDFYPGAVTVAWKADSSPVKAGVETTTPSKQSNNKYAASSYLSLTPEQWKSHRSYSCQVTHEGSTVEKTVAPTECS
notes: also called BsAb-06
- EC50 [8]: 1.18 nM

B2: BsAb-15 (bispecific antibody, human IgG1, lambda)
chain: EVQLVESGGGLVQPGGSLRLSCAASGRSFSSFQMGWFRQAPGKEREFVAASGWSGGPTYYWDSVIGRFTISTDNSKNTLYLQMNSLRAEDTAVYYCYEDRVLSGRHVRYWGQGTLVTVSSDKTHTCPPCPAPESTRGPSVFLFPPKPKDTLMISRTPEVTCVVVDVSHEDPEVKFNWYVDGVEVHNAKTKPREEQYNSTYRVVSVLTVLHQDWLNGKEYKCKVSNKALPAPIEKTISKAKGQPREPQVCTLPPSRDELTKNQVSLSCAVKGFYPSDIAVEWESNGQPENNYKTTPPVLDSDGSFFLVSKLTVDKSRWQQGNVFSCSVMHEALHNHYTQKSLSLSPGK
heavy: EVQLVESGGGLVQPGRSLRLSCAASGFTFNTYAMNWVRQAPGKGLEWVARIRSKYNNYATYYADSVKDRFTISRDDSKSIAYLQMNSLKTEDTAVYYCVRHGNFGNSYVSWFAYWGQGTLVTVSSASTKGPSVFPLAPSSKSTSGGTAALGCLVKDYFPEPVTVSWNSGALTSGVHTFPAVLQSSGLYSLSSVVTVPSSSLGTQTYICNVNHKPSNTKVDKKVEPKSCDKTHTCPPCPAPESTRGPSVFLFPPKPKDTLMISRTPEVTCVVVDVSHEDPEVKFNWYVDGVEVHNAKTKPREEQYNSTYRVVSVLTVLHQDWLNGKEYKCKVSNKALPAPIEKTISKAKGQPREPQVYTLPPCRDELTKNQVSLWCLVKGFYPSDIAVEWESNGQPENNYKTTPPVLDSDGSFFLYSKLTVDKSRWQQGNVFSCSVMHEALHNHYTQKSLSLSPGK
light: QTVVTQEPSLTVSPGGTVTLTCRSSTGAVTTSNYANWVQQKPGQAPRGLIGGTNKRAPGVPARFSGSLLGGKAALTLSGVQPEDEAEYFCALWYSNLWVFGGGTKLTVLGQPKAAPSVTLFPPSSEELQANKATLVCLISDFYPGAVTVAWKADSSPVKAGVETTTPSKQSNNKYAASSYLSLTPEQWKSHRSYSCQVTHEGSTVEKTVAPTECS
- EC50 [8]: 0.743 nM

B3: BsAb-11 (bispecific antibody, human IgG1, lambda)
chain: QVQLVESGGGVVQPGGSLRLSCAASGFVLRVNTVSWYRQAPGKQRELVALITSESNEYYDDSVKGRFTISRDNAKNTIYLHMNSLKPEDTGVYFCNFITTWGQGTQVTVSSDKTHTCPPCPAPESTRGPSVFLFPPKPKDTLMISRTPEVTCVVVDVSHEDPEVKFNWYVDGVEVHNAKTKPREEQYNSTYRVVSVLTVLHQDWLNGKEYKCKVSNKALPAPIEKTISKAKGQPREPQVCTLPPSRDELTKNQVSLSCAVKGFYPSDIAVEWESNGQPENNYKTTPPVLDSDGSFFLVSKLTVDKSRWQQGNVFSCSVMHEALHNHYTQKSLSLSPGK
heavy: QVQLVESGGGVVQPGGSLRLSCAASGFVLRVNTVSWYRQAPGKQRELVALITSESNEYYDDSVKGRFTISRDNAKNTIYLHMNSLKPEDTGVYFCNFITTWGQGTQVTVSSGGGGSGGGGSGGGGSEVQLVESGGGLVQPGRSLRLSCAASGFTFNTYAMNWVRQAPGKGLEWVARIRSKYNNYATYYADSVKDRFTISRDDSKSIAYLQMNSLKTEDTAVYYCVRHGNFGNSYVSWFAYWGQGTLVTVSSASTKGPSVFPLAPSSKSTSGGTAALGCLVKDYFPEPVTVSWNSGALTSGVHTFPAVLQSSGLYSLSSVVTVPSSSLGTQTYICNVNHKPSNTKVDKKVEPKSCDKTHTCPPCPAPESTRGPSVFLFPPKPKDTLMISRTPEVTCVVVDVSHEDPEVKFNWYVDGVEVHNAKTKPREEQYNSTYRVVSVLTVLHQDWLNGKEYKCKVSNKALPAPIEKTISKAKGQPREPQVYTLPPCRDELTKNQVSLWCLVKGFYPSDIAVEWESNGQPENNYKTTPPVLDSDGSFFLYSKLTVDKSRWQQGNVFSCSVMHEALHNHYTQKSLSLSPGK
light: QTVVTQEPSLTVSPGGTVTLTCRSSTGAVTTSNYANWVQQKPGQAPRGLIGGTNKRAPGVPARFSGSLLGGKAALTLSGVQPEDEAEYFCALWYSNLWVFGGGTKLTVLGQPKAAPSVTLFPPSSEELQANKATLVCLISDFYPGAVTVAWKADSSPVKAGVETTTPSKQSNNKYAASSYLSLTPEQWKSHRSYSCQVTHEGSTVEKTVAPTECS
- EC50 [8]: 4 nM

B4: BsAb-7 (bispecific antibody, human IgG1, lambda)
chain: QVQLVESGGGVVQPGGSLRLSCAASGFVLRVNTVSWYRQAPGKQRELVALITSESNEYYDDSVKGRFTISRDNAKNTIYLHMNSLKPEDTGVYFCNFITTWGQGTQVTVSSGGGGSGGGGSGGGGSQVQLVESGGGVVQPGGSLRLSCAASGFVLRVNTVSWYRQAPGKQRELVALITSESNEYYDDSVKGRFTISRDNAKNTIYLHMNSLKPEDTGVYFCNFITTWGQGTQVTVSSDKTHTCPPCPAPESTRGPSVFLFPPKPKDTLMISRTPEVTCVVVDVSHEDPEVKFNWYVDGVEVHNAKTKPREEQYNSTYRVVSVLTVLHQDWLNGKEYKCKVSNKALPAPIEKTISKAKGQPREPQVCTLPPSRDELTKNQVSLSCAVKGFYPSDIAVEWESNGQPENNYKTTPPVLDSDGSFFLVSKLTVDKSRWQQGNVFSCSVMHEALHNHYTQKSLSLSPGK
heavy: EVQLVESGGGLVQPGRSLRLSCAASGFTFNTYAMNWVRQAPGKGLEWVARIRSKYNNYATYYADSVKDRFTISRDDSKSIAYLQMNSLKTEDTAVYYCVRHGNFGNSYVSWFAYWGQGTLVTVSSASTKGPSVFPLAPSSKSTSGGTAALGCLVKDYFPEPVTVSWNSGALTSGVHTFPAVLQSSGLYSLSSVVTVPSSSLGTQTYICNVNHKPSNTKVDKKVEPKSCDKTHTCPPCPAPESTRGPSVFLFPPKPKDTLMISRTPEVTCVVVDVSHEDPEVKFNWYVDGVEVHNAKTKPREEQYNSTYRVVSVLTVLHQDWLNGKEYKCKVSNKALPAPIEKTISKAKGQPREPQVYTLPPCRDELTKNQVSLWCLVKGFYPSDIAVEWESNGQPENNYKTTPPVLDSDGSFFLYSKLTVDKSRWQQGNVFSCSVMHEALHNHYTQKSLSLSPGK
light: QTVVTQEPSLTVSPGGTVTLTCRSSTGAVTTSNYANWVQQKPGQAPRGLIGGTNKRAPGVPARFSGSLLGGKAALTLSGVQPEDEAEYFCALWYSNLWVFGGGTKLTVLGQPKAAPSVTLFPPSSEELQANKATLVCLISDFYPGAVTVAWKADSSPVKAGVETTTPSKQSNNKYAASSYLSLTPEQWKSHRSYSCQVTHEGSTVEKTVAPTECS
notes: also called BsAb-07
- EC50 [8]: 0.526 nM
